# Test results as given in article PMC12631696, “Trp101-Mediated Cold Adaptation in Sphingomonas sp. Thioredoxin: Increased α4-Helix Rigidity with Preserved Overall Flexibility” (ACS Omega, 2025).
# Tested on: O=C(O)c1cc(SSc2ccc([N+](=O)[O-])c(C(=O)O)c2)ccc1[N+](=O)[O-]
# Assay: purified protein
# Conditions: Trx pre-reduced with 5 mM DTT, 0.4 μM, 50 mM MOPS pH 7.0, 1 mM EDTA, DTNB 10–150 μM, apparent optimal temperature (40 °C)
Substance,Km [µM],kcat [s⁻¹]
SpTrx (Sphingomonas sp. PAMC 26621; W101F),50.7 ± 0.6,14.6 ± 0.1
SpTrx (Sphingomonas sp. PAMC 26621; E43A/E47A),44.0 ± 0.1,13.1 ± 0.2
SpTrx (Sphingomonas sp. PAMC 26621; W101A),59.9 ± 0.2,0.6 ± 0.1
SpTrx (Sphingomonas sp. PAMC 26621; E47A),39.0 ± 0.1,23 ± 0.1

# Same assay, conditions: Trx pre-reduced with 5 mM DTT, 0.4 μM, 50 mM MOPS pH 7.0, 1 mM EDTA, DTNB 10–150 μM, apparent optimal temperature (60 °C)
Substance,Km [µM],kcat [s⁻¹]
SpTrx (Sphingomonas sp. PAMC 26621),33.0 ± 0.1,26.1 ± 0.1
SpTrx (Sphingomonas sp. PAMC 26621; E43A),38.3 ± 0.1,23.4 ± 0.1
